Experimental data: article doi:10.1101/2022.12.26.521971
pKd: −log10 of the molar value. Values joined by “and” are separate entries in the source; they are usually repeats but may differ in a detail not shown here. Identical values can stand only once.

Legend:
[1] = molecular target: wild-type human Neurotensin Receptor 1 (hNTSR1) (human) (UniProt P30989); assay: radioligand binding
[2] = molecular target: wild-type rat Neurotensin Receptor 1 (rNTSR1) (rat) (UniProt P20789); assay: radioligand binding
wild-type rat Neurotensin Receptor 1 (rNTSR1) (rat), sequence (P20789 whole entry): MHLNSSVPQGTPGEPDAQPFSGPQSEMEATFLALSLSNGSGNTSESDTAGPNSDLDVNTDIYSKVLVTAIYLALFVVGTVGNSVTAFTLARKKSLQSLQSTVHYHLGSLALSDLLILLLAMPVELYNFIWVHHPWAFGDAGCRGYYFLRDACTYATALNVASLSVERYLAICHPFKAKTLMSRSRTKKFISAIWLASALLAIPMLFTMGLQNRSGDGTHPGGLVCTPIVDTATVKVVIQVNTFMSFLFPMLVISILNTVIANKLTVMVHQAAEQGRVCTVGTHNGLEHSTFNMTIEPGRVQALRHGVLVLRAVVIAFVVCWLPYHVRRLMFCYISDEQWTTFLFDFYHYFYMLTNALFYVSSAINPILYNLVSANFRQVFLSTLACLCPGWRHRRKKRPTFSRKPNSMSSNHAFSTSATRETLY

wild-type human Neurotensin Receptor 1 (hNTSR1) (human), sequence (P30989 whole entry): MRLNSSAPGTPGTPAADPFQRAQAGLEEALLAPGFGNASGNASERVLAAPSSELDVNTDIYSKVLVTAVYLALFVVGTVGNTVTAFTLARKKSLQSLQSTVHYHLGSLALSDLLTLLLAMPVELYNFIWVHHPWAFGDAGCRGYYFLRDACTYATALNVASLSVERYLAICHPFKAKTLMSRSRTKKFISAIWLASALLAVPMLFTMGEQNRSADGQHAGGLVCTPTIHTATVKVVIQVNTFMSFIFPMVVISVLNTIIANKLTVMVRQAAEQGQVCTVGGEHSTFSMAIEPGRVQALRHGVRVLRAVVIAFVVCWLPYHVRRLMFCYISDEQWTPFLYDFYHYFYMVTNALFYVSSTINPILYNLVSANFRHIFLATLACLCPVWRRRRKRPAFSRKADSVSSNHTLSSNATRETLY

[3H]Neurotensin (peptide)
pKd [1]: 8.67 and 9.04
pKd [2]: 8.64 and 9.17
